# In US20260001953A1 (TWIST BIOSCIENCE, published 2026):
# Positions count from the first letter of the chain named.
# T1: SIGLEC-5 (limits assumed)
# T1 construct: also called OB-BP-2
# T1 receptor: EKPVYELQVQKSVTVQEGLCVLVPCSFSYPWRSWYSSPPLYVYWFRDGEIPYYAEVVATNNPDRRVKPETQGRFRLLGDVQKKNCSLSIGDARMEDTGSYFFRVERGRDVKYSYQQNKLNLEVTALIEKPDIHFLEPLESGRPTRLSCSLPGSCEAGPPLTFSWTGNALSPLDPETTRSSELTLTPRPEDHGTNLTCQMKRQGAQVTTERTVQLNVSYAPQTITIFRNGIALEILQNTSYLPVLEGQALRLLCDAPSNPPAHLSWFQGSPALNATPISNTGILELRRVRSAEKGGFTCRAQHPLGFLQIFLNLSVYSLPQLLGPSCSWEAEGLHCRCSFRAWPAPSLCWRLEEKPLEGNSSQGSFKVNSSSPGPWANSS
# T2: mouse CD117 (mouse, UniProt P05532)
# T2 construct: antigen of the Carterra SPR kinetics; also called murine CD117
# T2 sequence (receptor, looked up): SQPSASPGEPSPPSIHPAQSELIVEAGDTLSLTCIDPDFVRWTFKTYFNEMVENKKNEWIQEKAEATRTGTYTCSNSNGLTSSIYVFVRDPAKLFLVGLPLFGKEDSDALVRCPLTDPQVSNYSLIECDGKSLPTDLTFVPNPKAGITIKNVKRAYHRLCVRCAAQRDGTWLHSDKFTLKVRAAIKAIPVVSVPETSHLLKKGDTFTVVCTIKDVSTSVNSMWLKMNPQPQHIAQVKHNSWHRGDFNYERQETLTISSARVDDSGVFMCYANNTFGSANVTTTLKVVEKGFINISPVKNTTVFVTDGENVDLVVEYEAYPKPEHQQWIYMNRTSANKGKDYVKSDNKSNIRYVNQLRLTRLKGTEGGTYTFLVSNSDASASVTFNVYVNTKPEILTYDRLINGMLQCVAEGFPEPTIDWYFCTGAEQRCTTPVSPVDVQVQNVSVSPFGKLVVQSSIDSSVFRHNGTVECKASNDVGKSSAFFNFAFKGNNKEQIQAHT
# B1: CD117-5 (antibody, human IgG1, kappa, V domains shown)
# VH: EVQLLESGGGLVQPGGSLRLSCAASGFIFTNYAMSWVRQAPGKGLEWVSAIGGSGSSTYYADSVKGRFTVSRDNSKNTLYLQMNSLRAEDTAVYYCVKGGYSYGDSFDFWGQGTLVTVSS
# VL: DIQMTQSPSSLSASVGDRVTITCRASQSVRNYLNWYQQKPGKAPKLLIYDASDLQSGVPSRFSGSGSGTDFTLTISSLQPEDFATYYCQQGYSTPWTFGGGTKVEIKR
# notes: detected with anti-human IgG in FACS
# B2: CD117-9 (antibody, human IgG1, kappa, V domains shown)
# VH: EVQLLESGGGLVQPGGSLRLSCAASGFSFTNYAMSWVRQAPGKGLEWVSSISGSGGSTYYADSVKGRFTISRDNSKNTLYLQMNSLRAEDTAVYYCARGSGSYFGFDFWGQGTLVTVSS
# VL: DIQMTQSPSSLSASVGDRVTITCRASQGIGTYLNWYQQKPGKAPKLLIYAASSLQPGVPSRFSGSGSGTDFTLTISSLQPEDFATYYCQQSYRPPFTFGGGTKVEIKR
# notes: as for B1
# B3: SIGLEC-8-10 (antibody, human IgG1, kappa, V domains shown)
# VH: EVQLLESGGGLVQPGGSLRLSCAASGFTFNNYAMAWVRQAPGKGLEWVSAISGSGSSPYYADSVKGRFTISRDNSKNTLYLQMNSLRAEDTAVYYCARDQIVAMDVWGQGTLVTVSS
# VL: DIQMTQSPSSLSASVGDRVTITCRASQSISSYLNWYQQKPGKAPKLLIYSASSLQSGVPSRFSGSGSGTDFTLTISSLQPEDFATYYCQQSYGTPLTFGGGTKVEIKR
# notes: tested as expressed and purified mAb
# B4: SIGLEC-8-54 (antibody, human IgG1, kappa, V domains shown)
# VH: B3 VH
# VL: B2 VL with A25G, G28S, G30S, T31S, A50D, P56S, P94T, F96I
# notes: as for B3
# B5: SIGLEC-8-24 (antibody, human IgG1, kappa, V domains shown)
# VH: EVQLLESGGGLVQPGGSLRLSCAASGFTFSSTAMSWVRQAPGKGLEWVSAISGTGGSTYYADSVKGRFTISRDNSKNTLYLQMNSLRAEDTAVYYCARESDYDYFGMDVWGQGTLVTVSS
# VL: B1 VL with R30S, N31S, L33V, D50G, D53S, S56D, G91S, T94V, W96V
# notes: as for B3
# B6: SIGLEC-8-19 (antibody, human IgG1, kappa, V domains shown)
# VH: B5 VH with S30R, S31T, T32Y, A33D, T54G, E99D, D101S, D103R, Y104W, G106S
# VL: B2 VL with S26G, G28S, G30S, A50G, S53K, P56S, S91T, P94T, F96L
# notes: as for B3
# B7: SIGLEC-8-7 (antibody, human IgG1, kappa, V domains shown)
# VH: EVQLLESGGGLVQPGGSLRLSCAASGFTFSNHAMAWVRQAPGKGLEWVSGISGSAASTYYADSVKGRFTISRDNSKNTLYLQMNSLRAEDTAVYYCARDLLALPYAFDIWGQGTLVTVSS
# VL: B1 VL with V29T, R30S, N31S, N34S, D50A, A51V, D53T, G91S, T94V, W96L
# notes: as for B3
# B8: SIGLEC-8-32 (antibody, human IgG1, kappa, V domains shown)
# VH: EVQLLESGGGLVQPGGSLRLSCAASGFTLSSYVMSWVRQAPGKGLEWVSAISGSGATTYYADSVKGRFTISRDNSKNTLYLQMNSLRAEDTAVYYCAREVAGIFDYWGQGTLVTVSS
# VL: B2 VL with A25S, G28S, G30S, S53Y, P56S, R93D, P94T, F96L
# notes: as for B3
# B9: SIGLEC-8-56 (antibody, human IgG1, kappa, V domains shown)
# VH: B5 VH with F27L, T32S, T54Y, S100A, D101G, D103Y, F105Y
# VL: B2 VL with G28K, G30T, T31S, Q55H, P56D, R93G, P94T, F96L
# notes: as for B3
# B10: SIGLEC-8-17 (antibody, human IgG1, kappa, V domains shown)
# VH: EVQLLESGGGLVQPGGSLRLSCAASGFPFSNYAMGWVRQAPGKGLEWVSGISASGSSTYYADSVKGRFTISRDNSKNTLYLQMNSLRAEDTAVYYCAREDSGKYLSLDYWGQGTLVTVSS
# VL: B2 VL with A25T, G28S, G30S, T31S, Y32H, R93N, P94T, F96P
# notes: as for B3
# B11: SIGLEC-8-8 (antibody, human IgG1, kappa, V domains shown)
# VH: EVQLLESGGGLVQPGGSLRLSCAASGFTFNYYALSWVRQAPGKGLEWVSGISGSGGTTFYADSVKGRFTISRDNSKNTLYLQMNSLRAEDTAVYYCARRGGWYSFDIWGQGTLVTVSS
# VL: B2 VL with S10T, S14Y, G28I, G30S, A50S, P56S, Y92F, R93S, P94A, F96D
# notes: as for B3
# Molecular target: T3, cyno CD117 (Macaca fascicularis, UniProt A0A7N9CP24)
# T3 construct: antigen of the Carterra SPR kinetics; also called cynomolgus monkey CD117
# T3 sequence (A0A7N9CP24 entry or part of it): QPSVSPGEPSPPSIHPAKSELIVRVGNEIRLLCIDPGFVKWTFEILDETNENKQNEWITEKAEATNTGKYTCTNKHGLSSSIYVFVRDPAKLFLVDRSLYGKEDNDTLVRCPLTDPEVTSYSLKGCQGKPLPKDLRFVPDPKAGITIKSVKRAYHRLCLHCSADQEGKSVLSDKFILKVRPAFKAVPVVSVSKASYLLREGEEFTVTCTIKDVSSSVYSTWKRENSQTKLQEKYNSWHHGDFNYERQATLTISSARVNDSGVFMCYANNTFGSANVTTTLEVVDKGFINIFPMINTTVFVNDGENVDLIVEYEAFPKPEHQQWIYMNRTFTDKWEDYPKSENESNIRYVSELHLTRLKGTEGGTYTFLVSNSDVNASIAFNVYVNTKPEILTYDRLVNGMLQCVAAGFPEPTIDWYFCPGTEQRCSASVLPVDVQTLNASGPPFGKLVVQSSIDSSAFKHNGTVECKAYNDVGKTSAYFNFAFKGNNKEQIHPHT
# Assay: Carterra SPR, cyno CD117
# Experimental: (§1) To further evaluate the antibodies discovered during the screens, 21 clones were selected for detailed characterization and were analyzed for target binding kinetics by a Carterra SPR instrument. The binding kinetics of the anti-CD117 antibodies for human CD117, cynomolgus monkey CD117, and murine CD117 are shown in FIG. 29A-29B.
Kd [nM],koff [s⁻¹],kon [M⁻¹ s⁻¹],Binder
2390,0.211,88300,B1
15.7,0.0108,685000,B2

# Molecular target: T4, CD117 transiently expressed on Expi293 cells (UniProt P10721 26-976, limits assumed)
# T4 construct: whole, on cells; Two cassettes are described (P2A mVenus and direct mVenus fusion); also called CD117 transient cells; the transient cell line
# T4 sequence (P10721 26-976 limits assumed): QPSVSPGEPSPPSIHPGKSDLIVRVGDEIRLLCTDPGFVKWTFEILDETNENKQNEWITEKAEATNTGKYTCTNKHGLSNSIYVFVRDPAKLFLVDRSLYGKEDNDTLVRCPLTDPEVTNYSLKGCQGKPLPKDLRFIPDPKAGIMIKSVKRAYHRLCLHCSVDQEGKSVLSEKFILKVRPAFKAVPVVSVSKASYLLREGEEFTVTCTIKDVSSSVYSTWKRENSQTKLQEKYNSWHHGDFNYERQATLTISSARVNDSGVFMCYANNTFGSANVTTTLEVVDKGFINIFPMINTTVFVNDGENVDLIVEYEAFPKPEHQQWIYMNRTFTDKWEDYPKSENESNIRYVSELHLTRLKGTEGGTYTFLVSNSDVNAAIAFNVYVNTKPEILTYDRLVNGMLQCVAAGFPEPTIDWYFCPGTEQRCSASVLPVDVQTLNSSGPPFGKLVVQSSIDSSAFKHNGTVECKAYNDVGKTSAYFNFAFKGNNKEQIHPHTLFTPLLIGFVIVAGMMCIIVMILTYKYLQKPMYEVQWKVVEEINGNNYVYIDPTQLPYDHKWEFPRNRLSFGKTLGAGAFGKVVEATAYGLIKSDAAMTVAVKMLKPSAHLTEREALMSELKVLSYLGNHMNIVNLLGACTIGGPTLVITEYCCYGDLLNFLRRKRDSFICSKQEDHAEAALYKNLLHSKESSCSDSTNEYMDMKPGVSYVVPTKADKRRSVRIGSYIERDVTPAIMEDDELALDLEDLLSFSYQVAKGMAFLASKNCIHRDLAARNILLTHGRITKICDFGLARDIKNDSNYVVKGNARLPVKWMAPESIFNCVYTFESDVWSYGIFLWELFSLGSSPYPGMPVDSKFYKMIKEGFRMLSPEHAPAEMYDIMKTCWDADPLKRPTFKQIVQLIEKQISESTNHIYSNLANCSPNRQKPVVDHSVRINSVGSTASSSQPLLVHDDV
# Assay: FACS, MFI expressing / parental cells
# Experimental: (§2) The transient expression of CD117 was validated with a control antibody, Expi293 (FIGS. 17A-17B). Expi293, […], was transiently transfected with CD117 48-hours post-transfection. The secondary antibody used was APC Goat anti-human IgG (diluted 1:400). 100,000 cells per well were blocked with 1×PBS+0.5% BSA for 1 hour, stained with 100 μL of the primary antibody for 1 hour, and stained with the secondary antibody for one hour, all with 3× washes in between each staining.
row,MFI Ratio,Binder
1,21.3,B1
2,29.1,B2

# Molecular target: T5, Sialic acid-binding immunoglobulin-like lectin 8 (SIGLEC-8), antigen of the Carterra SPR studies (UniProt Q9NYZ4 17-363, limits assumed)
# T5 sequence (Q9NYZ4 17-363 limits assumed): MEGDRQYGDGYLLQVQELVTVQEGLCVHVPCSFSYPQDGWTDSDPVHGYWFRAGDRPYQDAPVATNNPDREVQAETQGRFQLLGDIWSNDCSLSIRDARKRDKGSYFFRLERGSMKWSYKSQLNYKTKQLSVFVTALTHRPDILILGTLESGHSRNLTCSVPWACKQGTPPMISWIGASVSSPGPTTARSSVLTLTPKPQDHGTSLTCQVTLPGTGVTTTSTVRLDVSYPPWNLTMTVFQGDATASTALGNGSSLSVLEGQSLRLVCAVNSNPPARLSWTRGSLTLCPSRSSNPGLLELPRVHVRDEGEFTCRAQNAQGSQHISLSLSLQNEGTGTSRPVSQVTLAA
# Assay: Carterra SPR
# Procedure, shortened: (§3)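 Binding of antibodies to SIGLEC-8 was followed by surface plasmon resonance on a Carterra instrument to obtain rate constants and dissociation constants. Before these kinetic runs, clones from synthetic antibody libraries were selected by four rounds of bead-based panning and clonal ELISA, then expressed and purified.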
row,Kd [nM],Binder
1,3.17,B3
2,1.06,B4
3,0.822,B5
4,4.86,B6
5,1.12,B7
6,19.2,B8
7,0.271,B9
8,8.89,B10
9,1.65,B11

# Molecular target: T6, SIGLEC-2
# T6 construct: also called CD22
# T6 sequence (chain, as listed by the source limits assumed): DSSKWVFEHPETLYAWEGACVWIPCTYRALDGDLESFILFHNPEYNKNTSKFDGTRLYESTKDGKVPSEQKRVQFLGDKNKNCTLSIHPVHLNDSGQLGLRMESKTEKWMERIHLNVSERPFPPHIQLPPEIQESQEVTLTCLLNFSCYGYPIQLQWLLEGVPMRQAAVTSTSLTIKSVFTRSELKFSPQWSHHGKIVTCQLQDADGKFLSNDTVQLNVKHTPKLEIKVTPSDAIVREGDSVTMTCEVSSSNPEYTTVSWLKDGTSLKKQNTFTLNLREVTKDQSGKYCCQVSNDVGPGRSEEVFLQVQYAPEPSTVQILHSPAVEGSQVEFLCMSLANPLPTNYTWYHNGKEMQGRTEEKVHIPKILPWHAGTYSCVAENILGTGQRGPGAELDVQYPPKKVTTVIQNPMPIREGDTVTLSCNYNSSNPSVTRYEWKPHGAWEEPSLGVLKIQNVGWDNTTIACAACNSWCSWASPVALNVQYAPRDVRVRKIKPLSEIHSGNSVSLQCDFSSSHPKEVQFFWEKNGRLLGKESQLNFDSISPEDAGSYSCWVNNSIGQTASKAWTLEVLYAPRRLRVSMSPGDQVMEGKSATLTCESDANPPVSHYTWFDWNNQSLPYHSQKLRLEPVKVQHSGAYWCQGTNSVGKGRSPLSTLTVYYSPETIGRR
# Assay: SPR cross-reactivity table
# Procedure, shortened: (§4)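 Values are dissociation constants or binding results, one per protein tested, from surface plasmon resonance run on a Carterra instrument. The antibodies, raised against SIGLEC-8, were assessed for cross-reactivity with related SIGLEC proteins. They had been selected from synthetic libraries over four rounds of bead-based panning, screened by clonal ELISA, then expressed and purified.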
Kd [nM],binding result,Binder
755,–,B3
–,no binding,B4
–,no binding,B6
–,no binding,B7
128,–,B8
43.2,–,B9
836,–,B10
4300,–,B11

# Molecular target: T7, SIGLEC-7
# T7 construct: also called p75/AIRM1
# T7 sequence (receptor, as listed by the source limits assumed): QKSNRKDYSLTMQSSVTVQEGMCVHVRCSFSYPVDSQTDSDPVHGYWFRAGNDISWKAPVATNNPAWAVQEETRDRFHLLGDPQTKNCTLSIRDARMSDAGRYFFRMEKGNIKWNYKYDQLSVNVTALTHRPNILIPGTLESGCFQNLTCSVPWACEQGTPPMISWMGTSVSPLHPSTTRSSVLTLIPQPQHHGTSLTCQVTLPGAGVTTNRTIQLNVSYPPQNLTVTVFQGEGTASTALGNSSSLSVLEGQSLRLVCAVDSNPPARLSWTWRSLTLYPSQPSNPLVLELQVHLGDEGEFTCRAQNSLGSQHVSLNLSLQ
# Assay: SPR cross-reactivity table
# Procedure, shortened: as §4
binding result,Kd [nM],Binder
no binding,–,B3
no binding,–,B4
no binding,–,B5
no binding,–,B6
no binding,–,B7
–,17.4,B8
–,18,B9
no binding,–,B10
no binding,–,B11

# Molecular target: T1, SIGLEC-5
# Assay: SPR cross-reactivity table
# Procedure, shortened: as §4
binding result,Kd [nM],Binder
no binding,–,B3
–,19.9,B4
–,33.7,B5
–,14.5,B6
–,123,B7
–,4.2,B8
–,3.4,B9
no binding,–,B10
–,39.3,B11

# Molecular target: T8, SIGLEC-3
# T8 construct: also called CD33
# T8 sequence (receptor, as listed by the source limits assumed): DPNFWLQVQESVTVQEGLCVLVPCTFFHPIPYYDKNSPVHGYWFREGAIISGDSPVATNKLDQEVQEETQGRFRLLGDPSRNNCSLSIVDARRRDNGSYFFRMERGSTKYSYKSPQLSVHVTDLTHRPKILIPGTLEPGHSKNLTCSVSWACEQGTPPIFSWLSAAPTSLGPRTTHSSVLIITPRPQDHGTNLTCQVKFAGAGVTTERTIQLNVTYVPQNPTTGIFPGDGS
# Assay: SPR cross-reactivity table
# Procedure, shortened: as §4
binding result,Kd [nM],Binder
no binding,–,B3
no binding,–,B4
no binding,–,B5
no binding,–,B6
no binding,–,B7
–,60.5,B9
no binding,–,B10
no binding,–,B11

# Molecular target: T9, SIGLEC-6
# T9 construct: also called OB-BP-1
# T9 sequence (receptor, as listed by the source limits assumed): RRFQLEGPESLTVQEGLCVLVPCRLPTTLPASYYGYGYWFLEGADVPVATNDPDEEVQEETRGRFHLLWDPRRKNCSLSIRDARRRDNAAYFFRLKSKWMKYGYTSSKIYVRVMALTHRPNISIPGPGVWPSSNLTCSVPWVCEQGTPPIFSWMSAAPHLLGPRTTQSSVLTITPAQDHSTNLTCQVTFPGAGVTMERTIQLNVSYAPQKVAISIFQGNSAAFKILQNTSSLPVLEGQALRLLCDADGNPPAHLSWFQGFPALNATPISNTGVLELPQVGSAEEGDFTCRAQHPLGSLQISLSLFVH
# Assay: SPR cross-reactivity table
# Procedure, shortened: as §4
binding result,Kd [nM],Binder
no binding,–,B3
–,12,B4
no binding,–,B5
–,1070,B6
no binding,–,B7
–,5.3,B8
no binding,–,B10

# Molecular target: T10, Cluster of differentiation 117 (CD117), antigen of epitope binning and ELISA (UniProt P10721 26-520, limits assumed)
# T10 construct: also called tyrosine-protein kinase KIT; mast/stem cell growth factor receptor (SCFR)
# T10 sequence (P10721 26-520 limits assumed): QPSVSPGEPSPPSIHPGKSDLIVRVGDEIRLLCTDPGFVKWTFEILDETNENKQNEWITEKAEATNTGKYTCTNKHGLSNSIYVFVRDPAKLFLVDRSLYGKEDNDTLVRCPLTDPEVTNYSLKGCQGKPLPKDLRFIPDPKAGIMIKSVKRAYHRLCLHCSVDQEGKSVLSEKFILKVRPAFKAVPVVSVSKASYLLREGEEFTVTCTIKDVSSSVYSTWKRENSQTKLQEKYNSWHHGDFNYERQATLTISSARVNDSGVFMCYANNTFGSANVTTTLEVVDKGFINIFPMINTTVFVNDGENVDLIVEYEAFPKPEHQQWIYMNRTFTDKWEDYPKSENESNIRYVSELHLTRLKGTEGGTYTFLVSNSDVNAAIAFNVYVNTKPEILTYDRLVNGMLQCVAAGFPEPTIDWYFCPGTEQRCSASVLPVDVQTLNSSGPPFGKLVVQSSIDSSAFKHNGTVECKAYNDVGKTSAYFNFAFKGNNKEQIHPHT
# Assay: Carterra SPR, human CD117
# Experimental: as §1
Kd [nM],koff [s⁻¹],kon [M⁻¹ s⁻¹],Binder
670,0.201,300000,B1
9.51,0.0058,610000,B2

# Molecular target: T2, mouse CD117
# Assay: Carterra SPR, mouse CD117
# Experimental: as §1
row,binding result,Binder
1,no binding,B1
2,no binding,B2

# Molecular target: T4, CD117 transiently expressed on Expi293 …
# Assay: FACS cell binding, Expi293 transiently expressing CD117
# Experimental: as §2
row,EC50 [nM],Binder
1,6.88,B1
2,1.39,B2

# Molecular target: T11, SIGLEC-8 transiently expressed on cells (UniProt Q9NYZ4 17-499, limits assumed)
# T11 construct: whole, on cells; Two cassettes are described (P2A mVenus and direct mVenus fusion); also called the transient line; pTT5-SIGLEC-8 P2A mVenus
# T11 sequence (Q9NYZ4 17-499 limits assumed): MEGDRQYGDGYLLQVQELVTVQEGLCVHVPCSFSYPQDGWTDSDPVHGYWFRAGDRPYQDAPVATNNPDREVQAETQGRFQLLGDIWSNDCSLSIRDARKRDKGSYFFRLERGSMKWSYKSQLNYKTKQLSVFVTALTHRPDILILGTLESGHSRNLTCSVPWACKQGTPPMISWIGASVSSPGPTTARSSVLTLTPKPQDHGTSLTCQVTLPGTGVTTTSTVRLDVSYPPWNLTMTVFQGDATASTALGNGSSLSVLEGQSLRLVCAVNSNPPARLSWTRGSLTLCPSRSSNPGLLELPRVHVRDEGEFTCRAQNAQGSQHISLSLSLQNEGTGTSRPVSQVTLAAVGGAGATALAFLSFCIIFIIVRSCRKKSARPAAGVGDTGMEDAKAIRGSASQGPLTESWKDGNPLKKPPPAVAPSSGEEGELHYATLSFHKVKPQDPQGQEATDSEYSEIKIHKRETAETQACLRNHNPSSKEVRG
# Assay: cell binding titration, transient SIGLEC-8 line
row,EC50 [nM],Binder
1,1.09,B3
2,0.527,B4
3,1.05,B5
4,0.813,B7
5,3.81,B8
6,1.02,B9
7,1.25,B10
8,1.3,B11

# Molecular target: T5, Sialic acid-binding immunoglobulin-like …
# Assay: Carterra SPR kinetics, summary table
# Procedure, shortened: as §3
koff [s⁻¹],kon [M⁻¹ s⁻¹],Binder
0.000194,236000,B5
0.000156,576000,B9
